Assay results taken from patent US20070105162A1, “Monovalent avidin and streptavidin compositions” (Massachusetts Institute of Technology, priority 2005, published 2007).

Experiment: Biotin binding of avidin triple mutant (D4)
Experimental: After incubation at room temperature for 20 hr, the protein is precipitated by adding 50 μL to 200 μL 0.2 M ZnSO4 followed by 200 μL 0.2 M NaOH. The protein precipitate is pelleted by centrifugation at 16,500 g for 5 min. The biotin bound by D4 is calculated from the total ^3H-biotin added minus the ^3H-biotin in the supernatant. The Kd is obtained using a nonlinear regression analysis (one-site binding hyperbola) with SigmaPlot (Systat Software; Point Richmond, Calif.).
Methods provided in the Methods section above are used to make and test the monovalent avidin. We produce an avidin tetramer consisting of three subunits unable to bind biotin and one subunit that binds biotin as well as wild-type avidin. A triple mutant N12A, S16D, T35A is produced. […] The binding of this triple mutant (composed of “Dead” subunits-D) is so weak that it is difficult to measure. To generate monovalent avidin the wild-type subunit is first tagged with a His6-tag (“Alive” subunit-A). Then D and A subunits are combined at a molar ratio of 3:1 in guanidinium hydrochloride and refolded by rapidly diluting the mixture into PBS. This refold generates a mix of avidin tetramers of different compositions.

B1: D4 avidin: Avidin tetramer of four Dead subunits (N12A, S16D, T35A, SEQ ID NO:18) (protein)
chain: ARKCSLTGKWTADLGDNMTIGAVNSRGEFTGTYIAAVTATSNEIKESPLHGTQNTINKRTQPTFGFTVNWKFSESTTVFTGQCFIDRNGKEVLKTMWLLRSSVNDIGDDWKATRVGINIFTRLRTQKE
modifications: tetramer
  biotin binding of avidin triple mutant: negligible biotin binding
